Data reported in publication PMC5416850 (Nucleic Acids Research, 2017).

What was measured:
[1] = target: T1, Vibrio cholerae HigB2 toxin (Vibrio cholerae, UniProt Q9KMA6); experiment: ITC
T1 sequence: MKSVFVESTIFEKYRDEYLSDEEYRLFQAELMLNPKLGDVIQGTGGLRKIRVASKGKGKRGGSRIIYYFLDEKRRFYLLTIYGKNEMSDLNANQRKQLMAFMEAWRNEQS

[2] = target: the molecule itself; experiment: SAXS
[3] = target: Vibrio cholerae HigB2 toxin (Vibrio cholerae, UniProt Q9KMA6); experiment: crystal structure
[4] = target: the molecule itself; experiment: crystal structure

B1: Vibrio cholerae HigA2 antitoxin, full length (natural protein)
chain: MSNRDLFAELSSALVEAKQHSEGKLTLKTHHVNDVGELNISPDEIVSIREQFNMSRGVFARLLHTSSRTLENWEQGRSVPNGQAVTLLKLVQRHPETLSHIAEL
dH [1]: -26.6 ± 0.9 kcal/mol | stoichiometry N [2]: 2

B2: nanobody Nb6 (VHH)
VHH: QVQLQESGGGLVQPGGSLRLSCAASGFTFSNYAMRWYRQAPGEEREFVAFISSVGGSTNYADSVKGRFTISRDNGKNTLYLQMNSLKPEDTAVYFCVARLSLISDSWGQGTQVTVSS
binding result [3]: binds

B3: C-terminal domain of VcHigA2 (residues 38-104) (domain or fragment)
chain: LNISPDEIVSIREQFNMSRGVFARLLHTSSRTLENWEQGRSVPNGQAVTLLKLVQRHPETLSHIAEL
binding result [4]: binds

B4: nanobody Nb2 (VHH)
VHH: QVQLQESGGGLVQPGGSLRLSCAASGFTLDYYAIGWFRQAPGKEREGVSCISSSGGTTNYADSVKGRFTVSRDNAKNTVYLQMNSLKPEDTAVYYCVADFACPLIREYDYWGQGTQVTVSS
binding result [3]: binds

B5: VcHigA2_(3-22) peptide (peptide)
peptide: NRDLFAELSSALVEAKQHSEW
binding result [1]: binds
